Reference: patent US20230235013A1 (MABSOLVE, published 2023)

Target: T1, Histidine-tagged recombinant human FcγRI (CD64) (human, UniProt P12314 16-288)
T1 construct: bought; also called Sino Biological Cat. No. 12056-H08H
Test: SPR, culture supernatant, captured His-FcγRI;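 note: biacore T200 SPR at 25 °C, anti-His capture, supernatants of HEK293 cells expressing IgG1 Fc variants injected 1 min, reference-subtracted response read 55 s after injection start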
Description: Binding analysis was carried out by surface plasmon resonance at 25° C. using a Biacore® T200 instrument with Biacore® T200 control software. The running buffer (HBS-EP+) consisted of 0.01 M HEPES pH 7.4, containing 0.15 M NaCl, 3 mM EDTA, and 0.05% v/v Surfactant P20. The sample compartment was held at 4° C. during analysis.
The cell was activated by treatment with EDC/NHS for 7 min. The antibody was diluted to 5 μg/mL in 10 mM sodium acetate pH 4.5 and injected for 7 min at 5 μL/min. The flow cell was deactivated by injection of 1M ethanolamine for 7 min. This process was repeated in the absence of anti-his antibody on a separate flow cell to generate a reference surface. […] Samples of undiluted culture supernatants from HEK293 cells expressing human IgG1 antibodies comprising variant Fc regions were injected for 1 min at 30 μL/min and allowed to disassociate for 2 min. […] Therefore, regeneration between cycles was not necessary. Responses on the test flow cell (coupled with anti-His antibody) were analysed after subtraction of responses on the control flow cell (sham-coupled). The relative binding response was measured 55 sec after the beginning of sample injection. To account for any possible drift in response due to slow dissociation of the His-tagged FcγRI, the binding response was measured relative to a baseline interpolated between report points located before sample injection and at the end of dissociation.
The whole experiment was repeated three times. Due to the relatively crude nature of the samples (variable refractive index, presence of culture media and other cellular products), some sensorgrams were unsatisfactory and were eliminated from analysis. The mean and standard deviation of binding response was then calculated for each sample.

Binder | Mean binding response
anti-CD20 human IgG1 L234G/L235I/G236R (antibody, also called 1-52; copies: 2 + 2) heavy: QVQLQQPGAELVKPGASVKMSCKASGYTFTSYNMHWVKQTPGRGLEWIGAIYPGNGDTSYNQKFKGKATLTADKSSSTAYMQLSSLTSEDSAVYYCARSTYYGGDWYFNVWGAGTTVTVSSASTKGPSVFPLAPSSKSTSGGTAALGCLVKDYFPEPVTVSWNSGALTSGVHTFPAVLQSSGLYSLSSVVTVPSSSLGTQTYICNVNHKPSNTKVDKKVEPKSCDKTHTCPPCPAPEGIRGPSVFLFPPKPKDTLMISRTPEVTCVVVDVSHEDPEVKFNWYVDGVEVHNAKTKPREEQYNSTYRVVSVLTVLHQDWLNGKEYKCKVSNKALPAPIEKTISKAKGQPREPQVYTLPPSRDELTKNQVSLTCLVKGFYPSDIAVEWESNGQPENNYKTTPPVLDSDGSFFLYSKLTVDKSRWQQGNVFSCSVMHEALHNHYTQKSLSLSPGK light: QIVLSQSPAILSASPGEKVTMTCRASSSVSYIHWFQQKPGSSPKPWIYATSNLASGVPVRFSGSGSGTSYSLTISRVEAEDAATYYCQQWTSNPPTFGGGTKLEIKRTVAAPSVFIFPPSDEQLKSGTASVVCLLNNFYPREAKVQWKVDNALQSGNSQESVTEQDSKDSTYSLSSTLTLSKADYEKHKVYACEVTHQGLSSPVTKSFNRGEC | 29.2 RU
anti-CD20 human IgG1 L234G/L235R/G236R (antibody, also called 1-58; copies: 2 + 2) heavy: QVQLQQPGAELVKPGASVKMSCKASGYTFTSYNMHWVKQTPGRGLEWIGAIYPGNGDTSYNQKFKGKATLTADKSSSTAYMQLSSLTSEDSAVYYCARSTYYGGDWYFNVWGAGTTVTVSSASTKGPSVFPLAPSSKSTSGGTAALGCLVKDYFPEPVTVSWNSGALTSGVHTFPAVLQSSGLYSLSSVVTVPSSSLGTQTYICNVNHKPSNTKVDKKVEPKSCDKTHTCPPCPAPEGRRGPSVFLFPPKPKDTLMISRTPEVTCVVVDVSHEDPEVKFNWYVDGVEVHNAKTKPREEQYNSTYRVVSVLTVLHQDWLNGKEYKCKVSNKALPAPIEKTISKAKGQPREPQVYTLPPSRDELTKNQVSLTCLVKGFYPSDIAVEWESNGQPENNYKTTPPVLDSDGSFFLYSKLTVDKSRWQQGNVFSCSVMHEALHNHYTQKSLSLSPGK light: QIVLSQSPAILSASPGEKVTMTCRASSSVSYIHWFQQKPGSSPKPWIYATSNLASGVPVRFSGSGSGTSYSLTISRVEAEDAATYYCQQWTSNPPTFGGGTKLEIKRTVAAPSVFIFPPSDEQLKSGTASVVCLLNNFYPREAKVQWKVDNALQSGNSQESVTEQDSKDSTYSLSSTLTLSKADYEKHKVYACEVTHQGLSSPVTKSFNRGEC | 29.3 RU
anti-CD20 human IgG1 L234G/L235M/G236R (antibody, also called 1-55; copies: 2 + 2) heavy: QVQLQQPGAELVKPGASVKMSCKASGYTFTSYNMHWVKQTPGRGLEWIGAIYPGNGDTSYNQKFKGKATLTADKSSSTAYMQLSSLTSEDSAVYYCARSTYYGGDWYFNVWGAGTTVTVSSASTKGPSVFPLAPSSKSTSGGTAALGCLVKDYFPEPVTVSWNSGALTSGVHTFPAVLQSSGLYSLSSVVTVPSSSLGTQTYICNVNHKPSNTKVDKKVEPKSCDKTHTCPPCPAPEGMRGPSVFLFPPKPKDTLMISRTPEVTCVVVDVSHEDPEVKFNWYVDGVEVHNAKTKPREEQYNSTYRVVSVLTVLHQDWLNGKEYKCKVSNKALPAPIEKTISKAKGQPREPQVYTLPPSRDELTKNQVSLTCLVKGFYPSDIAVEWESNGQPENNYKTTPPVLDSDGSFFLYSKLTVDKSRWQQGNVFSCSVMHEALHNHYTQKSLSLSPGK light: QIVLSQSPAILSASPGEKVTMTCRASSSVSYIHWFQQKPGSSPKPWIYATSNLASGVPVRFSGSGSGTSYSLTISRVEAEDAATYYCQQWTSNPPTFGGGTKLEIKRTVAAPSVFIFPPSDEQLKSGTASVVCLLNNFYPREAKVQWKVDNALQSGNSQESVTEQDSKDSTYSLSSTLTLSKADYEKHKVYACEVTHQGLSSPVTKSFNRGEC | 23.2 RU
anti-CD20 human IgG1 L234G/L235K/G236R (antibody, also called 1-53; copies: 2 + 2) heavy: QVQLQQPGAELVKPGASVKMSCKASGYTFTSYNMHWVKQTPGRGLEWIGAIYPGNGDTSYNQKFKGKATLTADKSSSTAYMQLSSLTSEDSAVYYCARSTYYGGDWYFNVWGAGTTVTVSSASTKGPSVFPLAPSSKSTSGGTAALGCLVKDYFPEPVTVSWNSGALTSGVHTFPAVLQSSGLYSLSSVVTVPSSSLGTQTYICNVNHKPSNTKVDKKVEPKSCDKTHTCPPCPAPEGKRGPSVFLFPPKPKDTLMISRTPEVTCVVVDVSHEDPEVKFNWYVDGVEVHNAKTKPREEQYNSTYRVVSVLTVLHQDWLNGKEYKCKVSNKALPAPIEKTISKAKGQPREPQVYTLPPSRDELTKNQVSLTCLVKGFYPSDIAVEWESNGQPENNYKTTPPVLDSDGSFFLYSKLTVDKSRWQQGNVFSCSVMHEALHNHYTQKSLSLSPGK light: QIVLSQSPAILSASPGEKVTMTCRASSSVSYIHWFQQKPGSSPKPWIYATSNLASGVPVRFSGSGSGTSYSLTISRVEAEDAATYYCQQWTSNPPTFGGGTKLEIKRTVAAPSVFIFPPSDEQLKSGTASVVCLLNNFYPREAKVQWKVDNALQSGNSQESVTEQDSKDSTYSLSSTLTLSKADYEKHKVYACEVTHQGLSSPVTKSFNRGEC | 27.4 RU

Next, values leading:

Mean binding response | Binder
13.6 RU | anti-CD20 human IgG1 L234G/L235Q/G236R (antibody, also called 1-57; 2-18; copies: 2 + 2) heavy: QVQLQQPGAELVKPGASVKMSCKASGYTFTSYNMHWVKQTPGRGLEWIGAIYPGNGDTSYNQKFKGKATLTADKSSSTAYMQLSSLTSEDSAVYYCARSTYYGGDWYFNVWGAGTTVTVSSASTKGPSVFPLAPSSKSTSGGTAALGCLVKDYFPEPVTVSWNSGALTSGVHTFPAVLQSSGLYSLSSVVTVPSSSLGTQTYICNVNHKPSNTKVDKKVEPKSCDKTHTCPPCPAPEGQRGPSVFLFPPKPKDTLMISRTPEVTCVVVDVSHEDPEVKFNWYVDGVEVHNAKTKPREEQYNSTYRVVSVLTVLHQDWLNGKEYKCKVSNKALPAPIEKTISKAKGQPREPQVYTLPPSRDELTKNQVSLTCLVKGFYPSDIAVEWESNGQPENNYKTTPPVLDSDGSFFLYSKLTVDKSRWQQGNVFSCSVMHEALHNHYTQKSLSLSPGK light: QIVLSQSPAILSASPGEKVTMTCRASSSVSYIHWFQQKPGSSPKPWIYATSNLASGVPVRFSGSGSGTSYSLTISRVEAEDAATYYCQQWTSNPPTFGGGTKLEIKRTVAAPSVFIFPPSDEQLKSGTASVVCLLNNFYPREAKVQWKVDNALQSGNSQESVTEQDSKDSTYSLSSTLTLSKADYEKHKVYACEVTHQGLSSPVTKSFNRGEC
26.8 RU | anti-CD20 human IgG1 L234G/L235N/G236R (antibody, also called 1-56; copies: 2 + 2) heavy: QVQLQQPGAELVKPGASVKMSCKASGYTFTSYNMHWVKQTPGRGLEWIGAIYPGNGDTSYNQKFKGKATLTADKSSSTAYMQLSSLTSEDSAVYYCARSTYYGGDWYFNVWGAGTTVTVSSASTKGPSVFPLAPSSKSTSGGTAALGCLVKDYFPEPVTVSWNSGALTSGVHTFPAVLQSSGLYSLSSVVTVPSSSLGTQTYICNVNHKPSNTKVDKKVEPKSCDKTHTCPPCPAPEGNRGPSVFLFPPKPKDTLMISRTPEVTCVVVDVSHEDPEVKFNWYVDGVEVHNAKTKPREEQYNSTYRVVSVLTVLHQDWLNGKEYKCKVSNKALPAPIEKTISKAKGQPREPQVYTLPPSRDELTKNQVSLTCLVKGFYPSDIAVEWESNGQPENNYKTTPPVLDSDGSFFLYSKLTVDKSRWQQGNVFSCSVMHEALHNHYTQKSLSLSPGK light: QIVLSQSPAILSASPGEKVTMTCRASSSVSYIHWFQQKPGSSPKPWIYATSNLASGVPVRFSGSGSGTSYSLTISRVEAEDAATYYCQQWTSNPPTFGGGTKLEIKRTVAAPSVFIFPPSDEQLKSGTASVVCLLNNFYPREAKVQWKVDNALQSGNSQESVTEQDSKDSTYSLSSTLTLSKADYEKHKVYACEVTHQGLSSPVTKSFNRGEC
